Assay results from US20150030597A1 (US Dept. of Health and Human Services, published 2015).

What was measured:
[1] = target: T1, soluble mouse VEGFR2-hIgG.FC fusion protein (mouse; human, UniProt P35918 20-762); assay: flow cytometry, transduced mouse CD3+CD4+ T cells stained with soluble mVEGFR2-hIgG.FC and PE anti-human IgG-FC; mean ± SEM of 5 experiments
T1 construct: Bought from R&D Systems; also called soluble mouse VEGFR-2-human IgG-FC fusion protein; mVEGFR2-hIgG.FC; not shown: human IgG Fc
T1 sequence (P35918 20-762 limits assumed): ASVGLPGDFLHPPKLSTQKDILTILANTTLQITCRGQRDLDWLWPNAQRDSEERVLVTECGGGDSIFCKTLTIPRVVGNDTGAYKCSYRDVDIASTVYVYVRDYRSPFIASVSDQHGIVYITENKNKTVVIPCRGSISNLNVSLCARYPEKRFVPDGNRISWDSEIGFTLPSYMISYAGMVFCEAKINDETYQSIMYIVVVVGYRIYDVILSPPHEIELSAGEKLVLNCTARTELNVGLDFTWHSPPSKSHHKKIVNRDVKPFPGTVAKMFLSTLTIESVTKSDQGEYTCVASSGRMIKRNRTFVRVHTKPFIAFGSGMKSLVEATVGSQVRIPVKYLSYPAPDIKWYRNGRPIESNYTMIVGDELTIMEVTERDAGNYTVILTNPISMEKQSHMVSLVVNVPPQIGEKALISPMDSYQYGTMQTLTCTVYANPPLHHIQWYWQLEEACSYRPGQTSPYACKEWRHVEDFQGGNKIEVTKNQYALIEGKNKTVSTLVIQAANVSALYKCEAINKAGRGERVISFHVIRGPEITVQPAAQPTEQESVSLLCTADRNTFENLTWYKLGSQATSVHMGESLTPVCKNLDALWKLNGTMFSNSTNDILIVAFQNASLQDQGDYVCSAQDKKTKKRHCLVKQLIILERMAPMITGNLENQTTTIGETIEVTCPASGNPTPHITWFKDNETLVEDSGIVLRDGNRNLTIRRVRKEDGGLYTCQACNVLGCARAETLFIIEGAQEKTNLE
Experimental: (§1) Mouse T cells were retrovirally transduced with retroviral vectors DC101-CD828Z or DC101-CD828BBZ CAR as described in Example 5 or were transduced with the DC101-CD8 or SP6-CD828BBZ vectors described in Comparative Example 1, or with an empty MSGV vector (lacking any of the CAR sequences). Surface expression of the retrovirally encoded transgene products in transduced CD3⁺ primary mouse T cells was determined by flow cytometry using the soluble mouse VEGFR-2-human IgG-FC fusion protein and PE-conjugated anti-human IgG-FC.
(§2) On day 4 post-transduction, cells were costained with anti-mouse CD8 antibody and CAR-specific reagents and were FACS analysed to determine the expression of transgene products in CD8⁺and CD8″ T cell subsets. Detection of DC101 CAR on retrovirally transduced mouse T cells on day 4 after transduction was achieved by indirect immunofluorescence with soluble mouse (m) VEGFR2-hIgG.FC fusion protein (R&D Systems®, Minneapolis, […].), followed by staining with a phycoerythrin (PE)-labeled goat anti-human IgG-FC antibody (eBioscience™, San Diego, Calif.). Briefly, 5×10⁵ cells were incubated with 2 μg of bovine serum albumin (BSA; Sigma-Aldrich®) or species-specific soluble mVEGFR2-hIgG.FC protein at 4° C. for 45 min. Cells were then washed in FACS buffer (phosphate buffered saline containing 1% FBS) and stained with PE-conjugated anti human IgG-FC (αchIgG.FC). At this step, mouse T cells were co-stained with peridinin chlorophyll (PerCP)-labeled anti-mouse CD8 (BD Pharmingen, San Diego, Calif.) at appropriate concentrations recommended by the manufacturer at 4° C. for 20-30 min, then washed and resuspended in FACS buffer. Cells incubated with 2 μg bovine serum albumin (BSA) and subsequently stained with PE-conjugated anti human IgG-FC (αhIgG-FC) and PerCP labeled anti-mouse CD8 served as a control.

[2] = target: T1, soluble mouse VEGFR2-hIgG.FC fusion …; assay: flow cytometry, transduced mouse CD3+CD8+ T cells stained with soluble mVEGFR2-hIgG.FC and PE anti-human IgG-FC; mean ± SEM of 5 experiments
Experimental: as §1, §2

% Transduction (percent transgene positive cells) [1] | Mean Fluorescence Intensity (MFI) [1] | % Transduction (percent transgene positive cells) [2] | Mean Fluorescence Intensity (MFI) [2] | Binder
83.2% | 114 | 80.8% | 108 | DC101-CD8 (other, also called MSGV-DC101-CD8) EVQLVETGGGLVQPGNSLKLSCATSGFIFSTTWMNWIRQTPGKRLEWLAQIEDKSNNYFISYSESVKGRFTISRDDSKSSVYLQMNNLKEEDTAIYYCSWKYRSNYYFDYWGQGVMVTVSSGSTSGSGKPGSGEGSDIVLTQSPALAVSLEQRATISCKTSQNVDYYGISYLHWYQQKPGQQPKLLIYEGSNLASGIPARFSGSGSGTDFTLTIDPVEADDIVTYYCQQSKDYPYTFGAGTKLELKTTTKPVLRTPSPVHPTGTSQPQRPEDCRPRGSVKGTGLDFACDIYIWAPLAGICVALLLSLIITLICYHRSR
79% | 76.5 | 78.2% | 75.8 | DC101-CD828BBZ CAR (other, also called DC101-mCD828BBZ; MSGV-DC101-CD828BBZ) EVQLVETGGGLVQPGNSLKLSCATSGFIFSTTWMNWIRQTPGKRLEWLAQIEDKSNNYFISYSESVKGRFTISRDDSKSSVYLQMNNLKEEDTAIYYCSWKYRSNYYFDYWGQGVMVTVSSGSTSGSGKPGSGEGSDIVLTQSPALAVSLEQRATISCKTSQNVDYYGISYLHWYQQKPGQQPKLLIYEGSNLASGIPARFSGSGSGTDFTLTIDPVEADDIVTYYCQQSKDYPYTFGAGTKLELKAAATTTKPVLRTPSPVHPTGTSQPQRPEDCRPRGSVKGTGLDFACDIYIWAPLAGICVALLLSLIITLICYHRSRNSRRNRLLQVTTMNMTPRRPGLTRKPYQPYAPARDFAAYRPKWIRKKFPHIFKQPFKKTTGAAQEEDACSCRCPQEEEGGGGGYELRAKFSRSAETAANLQDPNQLYNELNLGRREEYDVLEKKRARDPEMGGKQQRRRNPQEGVYNALQKDKMAEAYSEIGTKGERRRGKGHDGLYQGLSTATKDTYDALHMQTLAPR
84% | 95 | 86% | 92 | DC101-CD828Z CAR (other, Chimeric antigen receptor on transduced primary mouse T cells: same as DC101-CD828BBZ but without the 4-1BB signalling domain; also called DC101-mCD828Z; MSGV-DC101-CD828Z) EVQLVETGGGLVQPGNSLKLSCATSGFIFSTTWMNWIRQTPGKRLEWLAQIEDKSNNYFISYSESVKGRFTISRDDSKSSVYLQMNNLKEEDTAIYYCSWKYRSNYYFDYWGQGVMVTVSSGSTSGSGKPGSGEGSDIVLTQSPALAVSLEQRATISCKTSQNVDYYGISYLHWYQQKPGQQPKLLIYEGSNLASGIPARFSGSGSGTDFTLTIDPVEADDIVTYYCQQSKDYPYTFGAGTKLELKAAATTTKPVLRTPSPVHPTGTSQPQRPEDCRPRGSVKGTGLDFACDIYIWAPLAGICVALLLSLIITLICYHRSRNSRRNRLLQVTTMNMTPRRPGLTRKPYQPYAPARDFAAYRPRAKFSRSAETAANLQDPNQLYNELNLGRREEYDVLEKKRARDPEMGGKQQRRRNPQEGVYNALQKDKMAEAYSEIGTKGERRRGKGHDGLYQGLSTATKDTYDALHMQTLAPR
